Test [1] concerns the target ssTorA(3×)-MBP-SpT. Description: overview table of covalent ligation to inclusion bodies.
Test [2] addresses ssTorA(3×)-MBP-SpT. Description: covalent coupling to inclusion bodies in PBS, 25 °C 2 h; SDS-PAGE and Coomassie staining.
Method: The mixtures were incubated at 25° C. for 2h. The inclusion bodies were collected through centrifugation and resuspended in PBS.

B1: GFPnb-SpyCatcher (VHH)
VHH: MVQLVESGGALVQPGGSLRLSCAASGFPVNRYSMRWYRQAPGKEREWVAGMSSAGDRSSYEDSVKGRFTISRDDARNTVYLQMNSLKPEDTAVYYCNVNVGFEYWGQGTQVTVSS
notes: also called GFPnb-SpC; GFPNanobody-SpyCatcher
With B1, the binding result with ssTorA(3×)-MBP-SpT [1] is on record as “binds”.

B2: GFPnb-SpC EQ (VHH)
VHH: MVQLVESGGALVQPGGSLRLSCAASGFPVNRYSMRWYRQAPGKEREWVAGMSSAGDRSSYEDSVKGRFTISRDDARNTVYLQMNSLKPEDTAVYYCNVNVGFEYWGQGTQVTVSS
As for B2, in the test with ssTorA(3×)-MBP-SpT [2], the binding result is given as “no binding (tested: 3.2 µM)”.

The record behind these values is patent US20220064691A1 (ABERA BIOSCIENCE, published 2022).
